{"source": "patent US20030054336A1", "key": {"[1]": {"target": "Antigen 1 (Consensus B, biotinylated peptide from gp41 epitope region II of HIV1 subtype B) (HIV1 subtype B (consensus))", "experiment": "bridge ELISA, Bi-Antigen 1 + Dig-Antigen 3"}, "[2]": {"target": "Antigen 2 (Consensus D, biotinylated peptide from gp41 epitope region II of HIV1 subtype D) (HIV1 subtype D (consensus))", "experiment": "bridge ELISA, Bi-Antigen 2 + Dig-Antigen 4"}}}
{"substance": "Negative control", "values": [{"measurement": "signal", "setting": "[1]", "result": 0.05, "unit": "U"}, {"measurement": "signal", "setting": "[2]", "result": 0.03, "unit": "U"}]}
